Source: patent US20110200585A1

Assays:
Fcγ (Val) = Fcγ (Val) (UniProt P08637); experiment: SPR, ProteOn XPR36; antibody amine-coupled to GLM chip, receptor 8-2048 nM as analyte, equilibrium fit, pH 7.4
Fcγ1 = Fcγ1 (UniProt P12314); experiment: as above
Fcγ2a (Arg) = Fcγ2a (Arg) (UniProt P12318); experiment: as above
Fcγ3a (Phe) = Fcγ3a (Phe) (UniProt P08637); experiment: as above
Cyno FcRn (cyno) = Cyno FcRn (cyno) (UniProt Q8SPV9); experiment: SPR, ProteOn XPR36; antibody amine-coupled to GLM chip, FcRn 8-2048 nM as analyte, equilibrium fit, pH 6.0
rat FcRn (rat) = rat FcRn (rat) (UniProt P13599); experiment: as above
Human FcRn (human) = Human FcRn (human) (UniProt P55899); experiment: as above
Mouse FcRn (mouse) = Mouse FcRn (mouse) (UniProt Q61559); experiment: as above

Sequence of rat FcRn (rat) (P13599 23-298 limits assumed, form in doubt, chain 1 of 2): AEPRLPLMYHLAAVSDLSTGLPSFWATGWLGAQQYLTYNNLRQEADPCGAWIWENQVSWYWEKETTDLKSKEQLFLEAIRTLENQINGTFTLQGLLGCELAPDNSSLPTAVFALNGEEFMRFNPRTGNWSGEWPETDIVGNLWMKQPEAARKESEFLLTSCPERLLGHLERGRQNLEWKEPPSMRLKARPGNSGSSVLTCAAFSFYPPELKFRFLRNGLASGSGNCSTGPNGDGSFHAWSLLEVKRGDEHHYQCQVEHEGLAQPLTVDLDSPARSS
Sequence of rat FcRn (rat) (chain, as listed by the source limits assumed, form in doubt, chain 2 of 2): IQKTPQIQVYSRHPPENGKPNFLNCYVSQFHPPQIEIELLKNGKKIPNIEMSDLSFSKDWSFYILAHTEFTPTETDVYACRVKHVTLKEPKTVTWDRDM
Sequence of Fcγ1 (P12314 16-288): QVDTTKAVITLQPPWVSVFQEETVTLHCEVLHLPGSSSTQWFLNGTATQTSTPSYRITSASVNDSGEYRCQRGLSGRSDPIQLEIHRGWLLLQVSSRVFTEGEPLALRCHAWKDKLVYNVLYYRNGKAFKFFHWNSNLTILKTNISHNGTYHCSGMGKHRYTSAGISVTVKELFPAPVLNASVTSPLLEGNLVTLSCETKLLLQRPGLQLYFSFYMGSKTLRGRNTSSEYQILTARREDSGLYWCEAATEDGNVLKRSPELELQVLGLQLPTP
Sequence of Fcγ3a (Phe) (P08637 17-208): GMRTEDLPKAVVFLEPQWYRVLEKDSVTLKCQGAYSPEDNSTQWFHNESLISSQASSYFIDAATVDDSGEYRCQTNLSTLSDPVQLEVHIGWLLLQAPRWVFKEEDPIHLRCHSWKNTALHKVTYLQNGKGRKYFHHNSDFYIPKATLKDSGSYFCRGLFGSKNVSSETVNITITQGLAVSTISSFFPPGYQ
Sequence of Fcγ (Val) (P08637 17-208 F176V): as the sequence (P08637 17-208) above, with F160V counted along it
Sequence of Fcγ2a (Arg) (P12318 34-217 H167R): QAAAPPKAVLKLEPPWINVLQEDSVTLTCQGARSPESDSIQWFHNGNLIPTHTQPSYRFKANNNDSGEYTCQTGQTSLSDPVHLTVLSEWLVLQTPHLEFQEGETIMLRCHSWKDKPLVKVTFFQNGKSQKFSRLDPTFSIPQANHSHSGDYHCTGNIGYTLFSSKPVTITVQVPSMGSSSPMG

Kd (Fcγ (Val)) [nM]	Kd (Fcγ1) [nM]	Kd (Fcγ2a (Arg)) [nM]	Kd (Fcγ3a (Phe)) [nM]	Kd (Cyno FcRn (cyno)) [nM]	Kd (rat FcRn (rat)) [nM]	Kd (Human FcRn (human)) [nM]	Kd (Mouse FcRn (mouse)) [nM]	Substance
442	14.9	1290	1840	156	112	95	160	Control Ab (Fc WT) (antibody)
–	–	–	–	195	118	154	171	Control Ab (Fc disabled) (antibody)
